This is an account of results in PMC12238530, “Dynamic SAS-6 phosphorylation aids centrosome duplication and elimination in C. elegans oogenesis” (EMBO Reports, 2025).

Assay [1] deals with T1, GST-SAS-6 full-length (FL) (C. elegans, UniProt O62479 1-492).
T1 construct: SAS-6, C. elegans, full length (1-492); pGEX6P1-GST vector; also called full-length SAS-6 coupled to beads; source: E. coli BL21 (DE3), purified (Glutathione Sepharose 4B); not shown: GST, N-terminal, kept
T1 sequence (looked up): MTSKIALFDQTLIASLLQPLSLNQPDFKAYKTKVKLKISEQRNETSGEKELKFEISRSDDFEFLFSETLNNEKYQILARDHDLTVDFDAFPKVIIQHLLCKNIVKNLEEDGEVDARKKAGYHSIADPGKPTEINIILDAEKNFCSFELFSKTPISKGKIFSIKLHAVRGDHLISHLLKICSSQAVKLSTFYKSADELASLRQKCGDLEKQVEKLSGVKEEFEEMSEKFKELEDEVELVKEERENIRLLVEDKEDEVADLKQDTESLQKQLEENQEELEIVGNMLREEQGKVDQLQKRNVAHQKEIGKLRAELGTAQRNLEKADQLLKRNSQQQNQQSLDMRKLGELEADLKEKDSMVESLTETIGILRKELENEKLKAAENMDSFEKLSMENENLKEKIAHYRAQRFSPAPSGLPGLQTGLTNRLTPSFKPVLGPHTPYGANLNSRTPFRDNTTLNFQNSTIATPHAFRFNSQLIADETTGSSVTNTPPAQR
The assay is described as follows: pull-down; GST pulldown of purified His-tagged SAS-6 proteins by purified GST-SAS-6 FL or truncations, with or without pre-phosphorylation by CDK1; α-His immunoblot and CBB staining (Fig. 5A, 5C, 5D). The conditions noted are these: both partners purified.

The next assay concerns the target T2, GST-SAS-6(∆N) (C. elegans, UniProt O62479 171-492).
T2 construct: SAS-6, C. elegans, N-terminal head domain deleted (∆1–170), so residues 171-492; also called GST-SAS-6-ΔN; source: E. coli BL21 (DE3), purified (Glutathione Sepharose 4B); not shown: GST, N-terminal, kept
T2 sequence (looked up): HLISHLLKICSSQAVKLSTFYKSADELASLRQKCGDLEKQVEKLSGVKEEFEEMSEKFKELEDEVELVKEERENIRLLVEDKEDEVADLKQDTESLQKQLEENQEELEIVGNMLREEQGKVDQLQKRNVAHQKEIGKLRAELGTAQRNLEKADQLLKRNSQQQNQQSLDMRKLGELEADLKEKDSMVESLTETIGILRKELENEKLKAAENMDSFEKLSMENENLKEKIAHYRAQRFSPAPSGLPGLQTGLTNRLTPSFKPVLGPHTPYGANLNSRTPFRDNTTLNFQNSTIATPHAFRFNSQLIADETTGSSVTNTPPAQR
The assay is described as follows: bead recruitment assay; GST-SAS-6 FL or truncations coupled to agarose beads; recruitment of mCherry-His tagged SAS-6 C-terminus seen by fluorescence (Fig. 5B, 5E). The conditions noted are these: both partners purified.

B1: SAS-6-C-mCherry-His (domain or fragment, C. elegans, UniProt O62479 401-492, looked up)
chain: HYRAQRFSPAPSGLPGLQTGLTNRLTPSFKPVLGPHTPYGANLNSRTPFRDNTTLNFQNSTIATPHAFRFNSQLIADETTGSSVTNTPPAQR
notes: SAS-6, C. elegans, C-terminal unstructured region, residues 401-492; Cloned in pET.28a-mCherry; the primer's vector part encodes LFQGP before the NdeI site, so a further N-terminal tag may be there; also called mCherry-His tagged SAS-6 C-terminus; SAS-6 C-terminus; source: E. coli BL21 (DE3), purified (Ni-NTA); not shown: mCherry, C-terminal, kept; His, C-terminal, kept
With B1, the binding result (in assay [1]; in the assay with GST-SAS-6(∆N)) was “binds” in each case.
